PMC12102759

Molecular target: G3BP1 NTF2-like domain (human) (UniProt Q13283)
Assay: fluorescence polarisation

Sequence of G3BP1 NTF2-like domain (human) (Q13283 1-139): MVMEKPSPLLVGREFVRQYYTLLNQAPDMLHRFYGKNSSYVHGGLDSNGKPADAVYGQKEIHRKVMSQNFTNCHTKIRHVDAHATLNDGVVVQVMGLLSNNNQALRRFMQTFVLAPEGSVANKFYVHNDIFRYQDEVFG

“SARS-CoV-2 N wt peptide 12-26 (peptide; other documents disagree on this pair)” was tested, and the IC50 was 8.7 µM.
